From patent US20060287243A1, “Stable pharmaceutical compositions including motilin-like peptides” (priority 2005, published 2006)
Square brackets hold non-standard residues; d marks the D form.

How the values were obtained:
Assay type in all cases: physicochemical
[1] = Long-term storage stability of the aqueous buffered composition; details: pH between approximately 3 and 9, preferably 4.8-5.2
Description: The aqueous pharmaceutical compositions of the present invention provides benefits previously unknown. The motilin-like peptide of pharmaceutical compositions of the present invention remains stable when stored over a wide range of temperatures for extended periods of time. For example, when stored at room temperature or its preferred lower storage temperature of 4° C.-5° C., substantial stability is maintained for significant periods of time. For example, at a storage temperature of approximately 25° C., the peptide contained in the composition of the present invention remains stable for at least 12 months, and more preferably at least approximately 18 months and, even more preferably, up to and even beyond approximately 24 months, retaining a potency of 90% or more as shown, for example, in FIG. 1. At a storage temperature of 5° C., storage with only marginal degradation (and a potency of at least 90-95%) of up to at least 18 months is regularly observed.
Whether prepared and stored as an aqueous unbuffered solution, an aqueous buffered solution, a ready-to-use or concentrated, or a lyophilized composition that is subsequently reconstituted, the pharmaceutical compositions of the present invention remains potent during storage for extended periods of time. […]

[2] = Storage stability of aqueous buffered composition in Schott Type 1 vials
Source text: Some plastics have also proven to be effective in assisting in the stabilization of the peptide composition. In this regard, preferred plastics are cyclic olefin copolymers, available, for example, from West Pharmaceuticals under the product name CZ resin vials, or from Schott under the product name TopPac vials, or from Alcan packaging under the product name Ticona Topas serum vials. The compositions of the present invention may also be stored in PVC, as well as non-PVC flexible bags. When stored in the above described glass or plastic containers, the above-described storage times at the above-described storage temperatures can be achieved, although for storage periods of at least 18 months, Type I Plus (vapor treated silicon) vials and Type I Plus glass ampules are preferred. […] It will be appreciated by those skilled in the art that the measured stability of pharmaceutical compositions at elevated temperatures, such as 40° C. or higher, may serve as the basis of prediction of stability for longer periods at more typical storage temperatures, such as 20°-25° C. or 4°-8° C., for example. Such “accelerated storage” studies are common in the field of the present invention.

[3] = Stability of motilin-like peptide following autoclaving and storage (HPLC, undegraded peptide remaining); details: 30 μg/ml in 10 mM sodium acetate buffer pH 5.0, Type I glass vials, autoclaved 121° C. 15 minutes, storage 3 months at 55° C. (FIG. 2)
Source text: A further advantage of the pharmaceutical composition of the present invention is its peptide stability when the composition is subjected to elevated temperatures such as the temperature of steam sterilization. Many peptides are inherently unstable and, when subjected to heat, are known to degrade very rapidly, typically in a few minutes or less. In contrast, in compositions of the present invention, the peptide substantially retains its stability (i.e., remains substantially undegraded and retains a substantial percentage of its initial potency), even after the composition is (1) subjected to steam sterilization (for at least 10 minutes and up to 60 minutes at temperatures of approximately 100° C.-128° C. and typically 121° C.), and (2) subsequently stored in a suitable container (described below) at lower temperatures typically encountered by a pharmaceutical composition, such as about 4° C.-5° C. to about 25° C.
The motilin-like peptide of SEQ ID NO.: 1 was dissolved at a concentration of 30 μg/ml in 10 mM sodium acetate buffer, pH 5.0. […] The potency of the peptide following storage at each temperature was measured over time by testing samples after incubation of one week, two weeks, three weeks, one month and three months. Potency was determined by using HPLC to measure the amount of undegraded peptide remaining in each sample. […]

[4] = Stability of lyophilized formulations of motilin-like peptide, reconstituted in water (HPLC); details: 30 μg/ml in 10 mM citrate buffer, 1% w/v sucrose, pH 6.0, lyophilized, stored in 20 ml vial at 40° C. for several months (FIG. 5)
Description: The motilin-like peptide including SEQ ID NO.: 1 was dissolved at a concentration of 30 μg/ml in 10 mM citrate buffer and 1% w/v of sucrose (bulking agent) at pH 6.0. The composition was lyophilized by standard techniques and stored in a 20 ml vial at 40° C. The potency of the motilin-like peptide was measured at the time intervals indicated in FIG. 5, by reconstituting the composition in water. Potency was determined by using HPLC to measure the amount of undegraded peptide remaining in each sample. […] (Again, it will be appreciated by those skilled in the art that the stability of pharmaceutical compositions at elevated temperatures, such as 40° C. as in FIG. 5, may serve as the basis of prediction of stability for longer periods at more typical storage temperatures, such as approximately 20° C.-25° C. or 4° C.-8° C., for example).

(Me3N)^+Phe-Val-Pro-Ile-Phe-Thr-Tyr-Gly-Glu-Leu-Gln-D-Arg-Leu-Lys-NH2 ({N,N,N‑trimethyl}-FVPIFTYGELQ[dR]LK-NH2) [SEQ ID NO.: 1, synthetic motilin-like peptide receptor agonist]
degradation during storage [1]: only minimal degradation | stability (maintenance of potency) ([2]; 30 μg/ml, several months at 5° C. to 55° C. (FIG. 4)): demonstrated stability | stability (maintenance of potency) ([2]; approximately 5 μg/ml, several months at 5° C. to 55° C. (FIG. 3)): demonstrated stability | potency retained (undegraded peptide remaining by HPLC) [3]: greater than 90% | potency retained (undegraded peptide remaining by HPLC) [4]: greater than 90%
